Drawing on patent US20160257763A1, this text covers Kd for 5 substances.

In the experiment the target is FcRn. Put plainly: SPR pH 6.0, Ab captured by goat anti-human IgG, FcRn injected.
Sequence of FcRn (P55899 24-297, chain 1 of 2): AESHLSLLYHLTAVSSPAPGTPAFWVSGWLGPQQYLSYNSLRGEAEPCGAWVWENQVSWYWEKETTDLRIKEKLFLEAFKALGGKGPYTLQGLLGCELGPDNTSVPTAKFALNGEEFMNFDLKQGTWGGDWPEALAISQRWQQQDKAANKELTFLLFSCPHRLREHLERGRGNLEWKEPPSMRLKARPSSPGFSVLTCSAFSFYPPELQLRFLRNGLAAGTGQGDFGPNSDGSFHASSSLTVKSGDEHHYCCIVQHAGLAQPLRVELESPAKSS
Sequence of FcRn (P61769 21-119, chain 2 of 2, further chain): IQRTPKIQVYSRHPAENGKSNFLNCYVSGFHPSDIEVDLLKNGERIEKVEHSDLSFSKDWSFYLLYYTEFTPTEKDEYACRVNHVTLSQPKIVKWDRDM

Turning to “T350V_L351Y_F405A_Y407V / T350V_T366L_K392M_T394W (antibody)”, the Kd amounted to 4.3 µM. “T350V_L351Y_S400E_F405A_Y407V / T350V_T366L_N390R_K392M_T394W (antibody)” displayed a Kd of 5 µM.

With “T350V_L351Y_F405A_Y407V / T350V_T366L_K392L_T394W (antibody)”, the Kd is 3.9 µM. Turning to “L351Y_F405A_Y407V / T366L_K392M_T394W (antibody)”, the Kd came out at 5 µM. The substance “Y349C_T350V_F405A_Y407V / T350V_S354C_T366L_K392M_T394W (antibody)” came in with a Kd of 4.1 µM.

For orientation: Kd means the concentration at which binding is half-saturated. Low values mean a tighter complex, high ones a looser complex.
